This passage reports screen value results from publication PMC12102759.

The labels stand for the following.
B1: AMOTL2 peptide 66-81 (Angiomotin-like protein 2), 16-mer library wild type / TNKS ANK (TNKS 12 ANK repeats, residues 174-649) (parent)
chain 1: LQQATRQEPQGQEHQG
chain 2: TGVPAVSGALRELLEACRNGDVSRVKRLVDAANVNAKDMAGRKSSPLHFAAGFGRKDVVEHLLQMGANVHARDDGGLIPLHNACSFGHAEVVSLLLCQGADPNARDNWNYTPLHEAAIKGKIDVCIVLLQHGADPNIRNTDGKSALDLADPSAKAVLTGEYKKDELLEAARSGNEEKLMALLTPLNVNCHASDGRKSTPLHLAAGYNRVRIVQLLLQHGADVHAKDKGGLVPLHNACSYGHYEVTELLLKHGACVNAMDLWQFTPLHEAASKNRVEVCSLLLSHGADPTLVNCHGKSAVDMAPTPELRERLTYEFKGHSLLQAAREADLAKVKKTLALEIINFKQPQSHETALHCAVASLHPKRKQVTELLLRKGANVNEKNKDFMTPLHVAAERAHNDVMEVLHKHGAKMNALDTLGQTALHRAALAGHLQTCRLLLSYGSDPSIISLQGFTAAQMGNEAVQQILSESTPIRTSD
B2: KIAA1671 peptide 600-615 (Uncharacterized protein KIAA1671), 16-mer library wild type / MDM2 SWIB (MDM2 SWIB/MDM2 domain, residues 17-125) (parent)
chain 1: TPEDDRSFQTVWATVF
chain 2: SQIPASEQETLVRPKPLLLKLLKSVGAQKDTYTMKEVLFYLGQYIMTKRLYDEKQQHIVYCSNDLLGDLFGVPSFSVKEHRKIYTMIYRNLVVVNQQESSDSGTSVSEN

The variants in one test derive from B1. Nature of the test: proteomic peptide phage display deep mutational scan (ProP-PD DMS): M13 P8 16-mer library selected against immobilised GST-tagged bait for four days (rounds), NGS of the eluted pools per day and pseudo-replica. The note with it: with TNKS ANK (TNKS 12 ANK repeats, residues 174-649); bait immobilised on MaxiSorp plates (10 µg), library pre-cleared on GST, 2 h binding at 4 °C, five washes; one round per day, days 1-4; value from days 2 and 3; keep out of graded; scale: average fractional NGS count over selection days 2 and 3.
chain 1 LQQATRDEPQGQEHQG [chain 1 Q7D]: the screen value is 2.19e-05. As to chain 1 LQQATRIEPQGQEHQG [chain 1 Q7I], the screen value is 0.0001.

Regarding chain 1 LQQATRREPQGQEHQG [chain 1 Q7R], the screen value was 0. As to chain 1 LQQATREEPQGQEHQG [chain 1 Q7E], the screen value was found to be 2.83e-05. In the case of chain 1 LQQATRSEPQGQEHQG [chain 1 Q7S], the screen value worked out at 0.000105. On to chain 1 LQQATEQEPQGQEHQG [chain 1 R6E], for which the screen value stood at 0.

chain 1 LQQATLQEPQGQEHQG [chain 1 R6L]: the screen value was determined as 0. Turning to chain 1 LQQATSQEPQGQEHQG [chain 1 R6S], the screen value was determined as 6.11e-05. As for chain 1 LQQATKQEPQGQEHQG [chain 1 R6K], the screen value stood at 0. Still for that read-out and setting: the result for chain 1 LQEATRQEPQGQEHQG [chain 1 Q3E] reads 9.57e-05. For chain 1 LQIATRQEPQGQEHQG [chain 1 Q3I], the screen value is 0.000108.

Consider chain 1 LQKATRQEPQGQEHQG [chain 1 Q3K], for which the screen value is 2.25e-05.

In the case of chain 1 LQMATRQEPQGQEHQG [chain 1 Q3M], the screen value was found to be 3.03e-05.

chain 1 LQRATRQEPQGQEHQG [chain 1 Q3R]: the screen value amounted to 0. Consider chain 1 LQQATRQEPQGNEHQG [chain 1 Q12N], for which the screen value was 2.19e-05. Turning to chain 1 LQQATRQEPQGSEHQG [chain 1 Q12S], the screen value is 5.26e-05. For the variant chain 1 LQQATRQEPQGDEHQG [chain 1 Q12D], the screen value came out at 0. Take chain 1 LQQATRQEPQGKEHQG [chain 1 Q12K]: the screen value worked out at 5.3e-05. Regarding chain 1 LQQATRQEPQGEEHQG [chain 1 Q12E], the screen value amounted to 4.24e-05. Take chain 1 LQQATRQEPQGVEHQG [chain 1 Q12V]: the screen value worked out at 6.42e-05.

chain 1 LQQATRQEPQGGEHQG [chain 1 Q12G]: the screen value was determined as 3.04e-05. Take chain 1 LQQATRQEPQGTEHQG [chain 1 Q12T]: the screen value stood at 9.71e-05. Still for that read-out and setting: the result for chain 1 LQQATRQIPQGQEHQG [chain 1 E8I] reads 6.96e-05; that for chain 1 LQQATRQNPQGQEHQG [chain 1 E8N], 0.000167; that for chain 1 LQQATRQEPAGQEHQG [chain 1 Q10A], 2.19e-05. For the variant chain 1 LQQATRQEPTGQEHQG [chain 1 Q10T], the screen value is 3.04e-05. As for chain 1 LQQATRQEPPGQEHQG [chain 1 Q10P], the screen value was found to be 6.1e-05. With chain 1 LQQATRQEPRGQEHQG [chain 1 Q10R], the screen value was 3.15e-05. Still for that read-out and setting: the result for chain 1 LQQATRQEPVGQEHQG [chain 1 Q10V] reads 6.99e-05. The same measure, in the same setting: then chain 1 LQQATRQEPFGQEHQG [chain 1 Q10F], with 0; and chain 1 LQQATRQEPKGQEHQG [chain 1 Q10K], with 0; and chain 1 LQQATRQEPMGQEHQG [chain 1 Q10M], with 4.87e-05.

Consider chain 1 LQQATRQEPQGQGHQG [chain 1 E13G], for which the screen value came to 5.19e-05. In the case of chain 1 LQQATRQEPQGQPHQG [chain 1 E13P], the screen value was found to be 3.32e-05.

For the variant chain 1 LQQATRQEPQGQWHQG [chain 1 E13W], the screen value was 1.87e-05. The same measure, in the same setting: then chain 1 LQQATRQEPQGQFHQG [chain 1 E13F], with 1.87e-05; and chain 1 LQQATRQEPQGQRHQG [chain 1 E13R], with 0; and chain 1 LQQATRQEPQGQDHQG [chain 1 E13D], with 6.42e-05. With chain 1 LQQATRQEPQGQKHQG [chain 1 E13K], the screen value amounted to 0.

For chain 1 LQQATRQEPQGQTHQG [chain 1 E13T], the screen value turned out to be 1.94e-05. Consider chain 1 RQQATRQEPQGQEHQG [chain 1 L1R], for which the screen value amounted to 2.19e-05.

chain 1 LFQATRQEPQGQEHQG [chain 1 Q2F]: the screen value was 3.49e-05.

As for chain 1 LRQATRQEPQGQEHQG [chain 1 Q2R], the screen value was determined as 0. With chain 1 LQQATRQEIQGQEHQG [chain 1 P9I], the screen value came to 6.68e-05. On the same count and under the same terms, then chain 1 LQQATRQEYQGQEHQG [chain 1 P9Y], with 0; and chain 1 LQQATRQEGQGQEHQG [chain 1 P9G], with 0; and chain 1 LQQATRQELQGQEHQG [chain 1 P9L], with 0. chain 1 LQQATRQEVQGQEHQG [chain 1 P9V]: the screen value is 9.22e-05.

As for chain 1 LQQATRQESQGQEHQG [chain 1 P9S], the screen value worked out at 0. Same read-out and setting: then chain 1 LQQATRQEPQGQEHKG [chain 1 Q15K], with 5.01e-05. As to chain 1 LQQAKRQEPQGQEHQG [chain 1 T5K], the screen value is 6.67e-05. As to chain 1 LQQAERQEPQGQEHQG [chain 1 T5E], the screen value stood at 5.19e-05. On to chain 1 LQQARRQEPQGQEHQG [chain 1 T5R], for which the screen value is 0. For chain 1 LQQAPRQEPQGQEHQG [chain 1 T5P], the screen value amounted to 5.25e-05.

As for chain 1 LQQAARQEPQGQEHQG [chain 1 T5A], the screen value worked out at 2.97e-05. Consider chain 1 LQQATRQEPQNQEHQG [chain 1 G11N], for which the screen value came to 5.06e-05. Same read-out and setting: the result for chain 1 LQQATRQEPQLQEHQG [chain 1 G11L] reads 0.

In the case of chain 1 LQQETRQEPQGQEHQG [chain 1 A4E], the screen value was 4.24e-05. Still for that read-out and setting: then chain 1 LQQATRQEPQGQEYQG [chain 1 H14Y], with 8.4e-05. As to chain 1 LQQATRQEPQGQEPQG [chain 1 H14P], the screen value is 6.39e-05.

Consider chain 1 LQQATRQEPQGQETQG [chain 1 H14T], for which the screen value was 3.21e-05. For the variant chain 1 LQQATRQEPQGQEDQG [chain 1 H14D], the screen value is 0.

Variants of B2 are the subject of another test. The test is described as above. The following applies: with MDM2 SWIB (MDM2 SWIB/MDM2 domain, residues 17-125); bait immobilised on MaxiSorp plates (10 µg), library pre-cleared on GST, 2 h binding at 4 °C, five washes; one round per day, days 1-4; value from days 2 and 3; keep out of graded; scale: average fractional NGS count over selection days 2 and 3.
In the case of chain 1 T14Q, the screen value came to 3.86e-05. Consider chain 1 T14S, for which the screen value amounted to 0.000516.

Consider chain 1 T14E, for which the screen value worked out at 0.000268. On the same count and under the same terms, the result for chain 1 T14Y reads 0.000108; that for chain 1 T14A, 2.89e-05. Turning to chain 1 T14V, the screen value amounted to 1.9e-05.

As for chain 1 T14H, the screen value is 4.28e-05.

As for chain 1 T14N, the screen value is 0.000664.

On to chain 1 T14W, for which the screen value amounted to 0.000103. Consider chain 1 T14I, for which the screen value came to 3.81e-05.

On to chain 1 T14M, for which the screen value was 0.00063. On the same count and under the same terms, the result for chain 1 T14R reads 0.00282; that for chain 1 T14G, 5.64e-05. chain 1 T14D: the screen value was found to be 9.35e-05. For the variant chain 1 Q9Y, the screen value stood at 0.000186. On the same count and under the same terms, the result for chain 1 V15W reads 0.000109; that for chain 1 V15F, 0.000104; that for chain 1 V15A, 0.000191. Take chain 1 V15G: the screen value was determined as 0. Regarding chain 1 V15M, the screen value was 8.76e-05. Regarding chain 1 V15S, the screen value worked out at 2.82e-05. Turning to chain 1 V15N, the screen value was 0. In the case of chain 1 V15P, the screen value was 0. Same read-out and setting: the result for chain 1 S7L reads 0.000105; that for chain 1 S7F, 3.36e-05.

In the case of chain 1 S7T, the screen value is 6.52e-05. Take chain 1 S7N: the screen value worked out at 5.84e-05. On the same count and under the same terms, the result for chain 1 S7W reads 0.000517; that for chain 1 S7P, 2.82e-05. On the same count and under the same terms, the result for chain 1 S7Q reads 0.000194; that for chain 1 S7K, 6.18e-05; that for chain 1 W12N, 0. The same measure, in the same setting: the result for chain 1 W12T reads 9.54e-05; that for chain 1 W12D, 0. For chain 1 W12K, the screen value turned out to be 9.9e-05. With chain 1 W12R, the screen value turned out to be 0. In the case of chain 1 R6I, the screen value came to 0.000114.

In the case of chain 1 R6H, the screen value was found to be 0.000397. For chain 1 R6M, the screen value is 0.000232. Same read-out and setting: the result for chain 1 R6A reads 0.000223; that for chain 1 R6W, 0.0002; that for chain 1 R6Q, 0.000155. In the case of chain 1 R6Y, the screen value is 0.000693. Still for that read-out and setting: the result for chain 1 R6V reads 0.000461; that for chain 1 R6S, 0.00021. With chain 1 R6T, the screen value was determined as 4.17e-05.

Regarding chain 1 R6K, the screen value stood at 0.000243. As to chain 1 R6G, the screen value stood at 9.01e-05.
